Experimental data taken from US20250313625A1 (ELPISCIENCE SUZHOU BIOPHARMA, published 2025).
Numbering of substitutions follows the chain as printed. Names may count otherwise. Read-outs that look alike come from different tables or passages of the source.

T1: mFc tagged human LAG3 ECD recombinant protein (human, UniProt P18627 23-450)
T1 construct: extracellular domain; purchased from Biointron; not shown: mouse IgG Fc (mFc) tag
T1 sequence (looked up): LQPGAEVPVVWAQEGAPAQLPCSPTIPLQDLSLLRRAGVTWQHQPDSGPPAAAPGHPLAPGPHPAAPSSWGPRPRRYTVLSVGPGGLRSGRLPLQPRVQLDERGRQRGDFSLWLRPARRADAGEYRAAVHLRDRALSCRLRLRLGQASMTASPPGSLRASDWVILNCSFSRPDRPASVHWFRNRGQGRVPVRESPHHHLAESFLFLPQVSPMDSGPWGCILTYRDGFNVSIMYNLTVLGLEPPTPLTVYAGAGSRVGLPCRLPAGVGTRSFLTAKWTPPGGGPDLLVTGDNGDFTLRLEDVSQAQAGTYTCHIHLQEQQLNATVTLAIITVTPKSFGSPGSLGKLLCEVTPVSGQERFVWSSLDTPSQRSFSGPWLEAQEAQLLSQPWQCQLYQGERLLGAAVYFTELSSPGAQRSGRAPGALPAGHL

T2: LAG3 D1 domain extra loop peptide (biotin labelled (site not stated))
T2 peptide: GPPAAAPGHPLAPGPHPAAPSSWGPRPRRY

T3: hFc tagged human LAG3 ECD recombinant protein (human, UniProt P18627 23-450)
T3 construct: range 23-450; also called biotin labelled hFc tagged human LAG3 ECD; not shown: human IgG Fc tag
T3 sequence (looked up): T1 sequence (looked up)

T4: human LAG3 ECD recombinant protein (plate coated, tag not stated) (human, UniProt P18627 23-450)
T4 construct: extracellular domain
T4 sequence (looked up): T1 sequence (looked up)

T5: human LAG3, full length, stably expressed on cells (human, UniProt P18627 23-525)
T5 construct: whole, on cells; also called CHOK1-human LAG3
T5 sequence (looked up): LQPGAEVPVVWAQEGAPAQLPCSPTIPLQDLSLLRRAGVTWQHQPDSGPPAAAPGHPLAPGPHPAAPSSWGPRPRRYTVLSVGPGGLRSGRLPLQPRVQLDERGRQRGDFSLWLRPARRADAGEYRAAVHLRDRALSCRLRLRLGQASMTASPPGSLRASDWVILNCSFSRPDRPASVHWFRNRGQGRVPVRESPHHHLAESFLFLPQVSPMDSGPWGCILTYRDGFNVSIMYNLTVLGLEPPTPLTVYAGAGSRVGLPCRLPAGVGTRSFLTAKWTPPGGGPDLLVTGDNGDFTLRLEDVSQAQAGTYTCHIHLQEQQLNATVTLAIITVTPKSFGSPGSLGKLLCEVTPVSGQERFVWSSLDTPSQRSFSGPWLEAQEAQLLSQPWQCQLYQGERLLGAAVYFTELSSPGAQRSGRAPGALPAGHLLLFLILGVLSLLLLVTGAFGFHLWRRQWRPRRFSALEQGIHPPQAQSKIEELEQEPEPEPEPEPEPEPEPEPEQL

T6: human LAG3 (form used in Octet, Biacore and HDX-MS not given) (human, UniProt P18627 23-450, limits assumed)
T6 sequence (looked up): T1 sequence (looked up)

B1: 029c (antibody, human IgG4, V domains shown)
VH: DVKLVESGEDLVKPGGSLKLSCAASGFTFSSYAMSWVRQTPEKRLEWVAYVTSGGDYIYYADTVKGRFTISRDDVRNTLYLQMSSLKSEDTAMYYCTRVAYDYEWYFDVWGTGAPVTVSS
VL: DIVMTQSHKFMSTSVGDRVSITCKASQDVTTAVAWYQQKPGQSPKLLIYSASYRYTGVSDRFTGSGSGTDFTFTISSVQAEDLALYYCQQHDSSPWTFGGGTKLEIK
notes: human IgG4 S228P / kappa chimeric antibody; also called chimeric antibody 029; not shown: human kappa light chain constant region (pcDNA3.4-hIgGk vector)
B2: BAP-050 (antibody, V domains shown)
VH: QIQLVQSGPELKKPGETVKISCKASGFTLTNYGMNWVRQTPGKGLKWMGWINTDTGEPTYADDFKGRFAFSLETSASTASLQINNLKNADTATYFCARNPPYYYGTNNAEAMDYWGQGTAVTVSS
VL: DIQMTQTTSSLSASLGDRVTISCSSSQDISNYLNWYQQKPDGTVKVLIYYTSTLHLGVPSRFSGSGSGTDYSLTISNLELEDIATYYCQQYYNLPWTFGGGTKLEIK
notes: also called BAP-50
B3: 021c (antibody, human IgG4, V domains shown)
VH: DIQLQESGPGLVKPSQSLSLTCSVTGYSITSGYYWNWIRQFPGNKLEWMGDISYDGGNNYNPSLKNRISITRDTSKNQFFLKLNSVTTEDTATYYCARDITLTGAMDYWGQGTSVTVSS
VL: DIVLTQSPASLAVSLGQRATISCRASESVDNYGISFMHWYQQRPGQPPKLLIYRASNLESGIPARFSGSGSRTDFTLTINPVETDDVATYYCQQSNKDPYTFGGGTKLEIK
notes: human IgG4 S228P / kappa chimeric antibody; also called chimeric antibody 021; not shown: human kappa light chain constant region (pcDNA3.4-hIgGk vector)
B4: hu029.55 (antibody, V domains shown)
VH: QVQLVESGGGLVKPGGSLRLSCAASGFTFSSYAMSWIRQAPGKGLEWVSYVTSGGDYIYYADTVKGRFTISRDDAKNSLYLQMNSLRAEDTAVYYCTRVAYDYEWYFDVWGQGTLVTVSS
VL: DIQMTQSPSSVSASVGDRVTITCKASQDVTTAVAWYQQKPGKAPKLLIYSASYRYTGVPSRFSGSGSGTDFTLTISSLQPEDFATYYCQQHDSSPWTFGQGTKLEIK
notes: humanized from 029c
B5: hu029.55.S93Q (antibody, V domains shown)
VH: B4 VH
VL: B4 VL with S93Q

Legend:
[1] = molecular target: T1, mFc tagged human LAG3 ECD recombinant …; experiment: competitive FACS: mFc tagged human LAG3 ECD binding to MHC II on Raji cells
Procedure: (§1) Activity of the purified chimeric antibodies to block LAG3 and MHC II interaction was determined by competitive FACS assay. […] After washing, dye labeled anti-mouse Fc 2nd antibody (Sigma) was added and incubated at 37° C. for 1 hour. Fluorescence intensity was detected.

[2] = molecular target: T1, mFc tagged human LAG3 ECD recombinant …; experiment: as above; remark: listed apart in the source
Procedure: as §1

[3] = molecular target: T2, LAG3 D1 domain extra loop peptide; experiment: ELISA format I: biotin labelled LAG3 D1 domain extra loop peptide on plate coated antibody; axis printed as Ab Conc. (nM)
Procedure: In ELISA binding assay of format I (FIG. 9A), biotin labelled LAG3 D1 domain extra loop peptide was incubated with ELISA microplate coated anti-LAG3 antibodies. After washing, HRP labeled anti-SA 2nd antibody (Sigma) was added and incubated at 37° C. for 1 hour. Then, 100 μl/well of TMB solution (Biotechnology) was added. After incubation for 15 minutes at room temperature, the reaction was stopped by the addition of 50 μl of 1N HCl. OD 450 nm was read. In ELISA binding assay of format II (FIG. 9B), biotin labelled LAG3 D1 domain extra loop peptide and anti-LAG3 antibodies were co-incubated in ELISA microplate coated with SA. After washing, HRP labeled anti-human Fc 2nd antibody (Sigma) was added and incubated at 37° C. for 1 hour. Then, 100 μl/well of TMB solution (Biotechnology) was added. After incubation for 15 minutes at room temperature, the reaction was stopped by the addition of 50 μl of 1N HCl. OD 450 nm was read.

[4] = molecular target: T3, hFc tagged human LAG3 ECD recombinant …; experiment: competitive ELISA format II: biotin hFc-LAG3 ECD binding to coated His-FGL1
Procedure: After washing, HRP labeled anti-His 2nd antibody (Sigma) was added and incubated at 37° C. for 1 hour. Then, 100 μl/well of TMB solution (Biotechnology) was added. After incubation for 15 minutes at room temperature, the reaction was stopped by the addition of 50 μl of 1N HCl. OD 450 nm was read. […] After washing, HRP labeled anti-SA 2nd antibody (Sigma) was added and incubated at 37° C. for 1 hour. Then, 100 μl/well of TMB solution (Biotechnology) was added. After incubation for 15 minutes at room temperature, the reaction was stopped by the addition of 50 μl of 1N HCl. OD 450 nm was read. […] The competition assay of format III is a competitive FACS assay. […] After washing, dye labeled anti-His 2nd antibody (Sigma) was added and incubated at 37° C. for 1 hour. Fluorescence intensity was detected.

[5] = molecular target: T4, human LAG3 ECD recombinant protein …; experiment: competitive ELISA format I: His-FGL1 binding to coated LAG3 ECD
[6] = molecular target: T1, mFc tagged human LAG3 ECD recombinant …; experiment: competitive ELISA: mFc tagged human LAG3 ECD binding to plate coated LSECtin ECD
Procedure: Activity of the purified chimeric antibodies to block LAG3 and LSECtin interaction was determined by competitive ELISA assay. […] After washing, HRP labeled anti-mouse Fc 2nd antibody (Sigma) was added and incubated at 37° C. for 1 hour. Then, 100 μl/well of TMB solution (Biotechnology) was added. After incubation for 15 minutes at room temperature, the reaction was stopped by the addition of 50 μl of 1N HCl. OD 450 nm was read.

[7] = molecular target: T1, mFc tagged human LAG3 ECD recombinant …; experiment: competitive FACS: mFc-LAG3 ECD binding to Raji cells (MHC II)
Procedure: as §1

[8] = molecular target: T5, human LAG3, full length, stably …; experiment: FACS on 293F cells stably expressing human LAG3
Procedure: Briefly the antibodies were incubated with 2×10⁵ target cells at 4° C. for 1 hour. After washing, fluorescence labeled anti-mouse IgG 2nd antibody (Life Technologies) was added and incubated at 4° C. for 1 hour. Geometric median fluorescence intensity (MFI) was detected and EC₅₀ was calculated using GraphPad Prism9.0.
(§2) MFI was detected and EC₅₀ was calculated using GraphPad Prism9.0.

[9] = molecular target: T6, human LAG3 (form used in Octet, Biacore …); experiment: BLI (Octet), 1:1 fit
Procedure: (§3) The association and dissociation curves were fit with 1:1 binding model, and the Ka/Kd/KD values for each antibody were calculated.
as §3

[10] = molecular target: T6, human LAG3 (form used in Octet, Biacore …); experiment: BLI (Octet), 1:1 fit; remark: listed apart in the source
Procedure: The purified chimeric antibodies were characterized for binding affinity against human LAG3 using Bio-Layer Interferometry technology (Octet system). The association and dissociation curves were fit with 1:1 binding model, and the Ka/Kd/KD values for each antibody were calculated.

[11] = molecular target: T5, human LAG3, full length, stably …; experiment: FACS on CHOK1 cells stably expressing human LAG3
Procedure: as §2

Row | Binder | %Blocking at 4 nM [1] [%] | %Blocking at 8 nM [1] [%] | %Blocking at 2 nM [2] [%] | %Blocking at 4 nM [2] [%] | %Blocking at 8 nM [2] [%] | binding result [3] | IC50 [4] [nM] | TOP blocking (%) [4] [%] | Blocking ratio at 66.7 nM (%) [5] [%] | %Blocking at 4 nM [6] [%] | %Blocking at 20 nM [6] [%] | %Blocking at 100 nM [6] [%] | IC50 [7] [nM] | TOP blocking (%) [7] [%] | EC50 [8] [nM] | TOP MFI [8] | Kd [9] [nM] | koff [9] [s⁻¹] | kon [9] [M⁻¹ s⁻¹] | Kd [10] [nM] | further results
1 | B1 | 21.5 | 96.7 | 9.7 | 24.1 | 84.3 | no binding (tested: about 300 nM) | 2 | 84.5 | 62.6 | 61.6 | 92.7 | 97 | 4.2 | 96.4 | 1.6 | 416 | 7.7 | 0.0268 | 3.48e+06 | 3.58 | koff [10]: 0.00139 s⁻¹; kon [10]: 389000 M⁻¹ s⁻¹
2 | B2 |  |  |  |  |  | no binding (tested: about 300 nM) |  |  | 39.3 |  |  |  |  |  | 1.7 | 267 |  |  |  |  | 
3 | B3 |  |  | 13.7 | 20.1 | 76.8 | no binding (tested: about 300 nM) | 1.93 | 82 |  | 27.4 | 91.4 | 95.6 | 4.2 | 99.9 | 15.6 |  | 5.34 | 0.00271 | 508000 | 6.52 | EC50 [11]: 1.6 nM; TOP MFI [11]: 620; koff [10]: 0.000905 s⁻¹; kon [10]: 139000 M⁻¹ s⁻¹
4 | B4 | 26 | 96.7 | 18.9 | 37.5 | 98.8 |  |  |  |  |  |  |  |  |  |  |  | 4.42 | 0.0197 | 4.47e+06 |  | 
5 | B5 | 62.8 | 99.4 |  |  |  |  |  |  |  |  |  |  |  |  |  |  | 4.08 | 0.0207 | 5.06e+06 |  | 
